# B1: Ranpirnase (protein, UniProt P22069 1-104, looked up)
# Protein P-30: QDWLTFQKKHITNTRDVDCDNIMSTNLFHCKDKNTFIYSRPEPVKAICKGIIASKNVLTTSEFYLSDCNVTSRPCKYKLKKSTNKFCVTCENQAPVHFVGVGSC
# notes: amphibian ribonuclease originally isolated from oocytes and/or early embryos of Rana pipiens; pancreatic ribonuclease (RNase A) superfamily, about 12 kD
# Experiments:
# [1] = Jones Dye test for nasolacrimal duct blockage; format: in vivo, NZW rabbit; settings: Day 21, all Ranpirnase concentrations
# Method: The animals were also assayed on day 21 for nasolacrimal duct blockage by performing a Jones Dye test. On Day 21, a drop of sodium fluorescein was placed in each eye and the time to the dye appearing in the ipsilateral nostril was measured.
molecule,measurement,setting,value
B1,"Blocked nasolacrimal ducts, Jones Dye test",[1],"no Ranpirnase treated rabbits, regardless of concentration, resulted in blocked nasolacrimal ducts"
same,CPE Reduction Assay CC50,MA-104 cells,75 µg/mL

# From patent publication US9682130B2 (priority 2015, dated 2017)
